In publication PMC5753033, “WH2 and proline‐rich domains of WASP‐family proteins collaborate to accelerate actin filament elongation” (The EMBO Journal, 2017):

Molecular target: Atto540Q-labeled actin monomers (Acanthamoeba castellanii), Latrunculin B-stabilized (Acanthamoeba castellanii, Atto540Q-NHS at reactive lysine residues)
Assay: FRET or BRET; 7.5 nM Alexa488-labeled WAVE1 variant titrated with LatB-stabilized Atto540Q-actin; donor quenching; room temperature; 20 mM HEPES pH 7.0, 100 mM KCl, 1.5 mM MgCl2, 1 mM EGTA, 1 mM ATP; single site binding curve
Details: both partners purified

B1: Alexa488-labeled WAVE1 P_CA (WH2-delete construct) (domain or fragment)
chain: RPHEPPPPPPMHGAGDAKPIPTSISSATGLIENRPQSPATGRTPVFVSPTPPPPPPPLPSALSTSSLRASMTSTPPPPVPPPPPPPATALQAPAVPPPPAPLQIAPGVLHPAPPPIAPPLVQPSPPVARAAPVSETVPVHPLPQGEVQGLPPPPPPPPLPPPGIRPSSPVTVTALAHPPSGLHPTPSTAPGPHVPLMPPSPPSQVIPASEPKRHPSCLPVISDEEQREQEAKHERIENDVATILSRRIAVEYSDSEDDSEFDEVDWLE
modifications: Alexa488-maleimide on Cys490
- Kd: 425 nM
